Assay results taken from the supplement of paper PMC9112550, “Optimization of the antimicrobial peptide Bac7 by deep mutational scanning” (BMC Biology, 2022).

System: Escherichia coli TOP10
Assay: shrunken log2 fold change of peptide-encoding DNA abundance (4.5 h post-induction vs induction); higher = less antimicrobial activity (less host growth inhibition)
Details: time post-induction: 4.5 h; library: site-saturation at positions 5, 18, 19, 20
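Further: peptides expressed intracellularly from a pBAD plasmid library in pooled LB shake-flask culture, induced with 0.3% L-arabinose, DNA abundance read by NGS, three biological replicates, DESeq2 with apeglm shrinkage.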

| Sequence | shrunken log2 fold change |
| --- | --- |
| RRIRSRPPRLPRPRPRPFLCPRP | -0.634 |
| RRIRKRPPRLPRPRPRPVYQPRP | 0.131 |
| RRIRNRPPRLPRPRPRPLASPRP | -0.196 |
| RRIRHRPPRLPRPRPRPCRHPRP | -0.204 |
| RRIRPRPPRLPRPRPRPYTPPRP | -0.447 |
| RRIRDRPPRLPRPRPRPYKNPRP | -0.454 |
| RRIRIRPPRLPRPRPRPIANPRP | -0.0104 |
| RRIRFRPPRLPRPRPRPPIFPRP | -0.0711 |
| RRIRLRPPRLPRPRPRPEPEPRP | 0.551 |
| RRIRNRPPRLPRPRPRPGRLPRP | -0.0294 |
| RRIRCRPPRLPRPRPRPVVAPRP | 0.319 |
| RRIRIRPPRLPRPRPRPRIIPRP | -0.199 |
| RRIRMRPPRLPRPRPRPAYTPRP | -0.0493 |
| RRIRWRPPRLPRPRPRPFNMPRP | -0.298 |
| RRIRFRPPRLPRPRPRPTWVPRP | 0.156 |
| RRIRVRPPRLPRPRPRPKTFPRP | -0.0753 |
| RRIRRRPPRLPRPRPRPAYCPRP | 0.0506 |
| RRIRMRPPRLPRPRPRPRTCPRP | 0.00872 |
| RRIRERPPRLPRPRPRPAFGPRP | 0.353 |
| RRIRLRPPRLPRPRPRPGFRPRP | 0.0673 |
| RRIRRRPPRLPRPRPRPMFNPRP | -0.146 |
| RRIRHRPPRLPRPRPRPTQCPRP | -0.0253 |
| RRIRERPPRLPRPRPRPKFGPRP | 0.37 |
| RRIRSRPPRLPRPRPRPWCSPRP | -0.296 |
| RRIRPRPPRLPRPRPRPSNKPRP | -0.56 |

| Sequence | shrunken log2 fold change |
| --- | --- |
| RRIRHRPPRLPRPRPRPVYFPRP | -0.508 |
| RRIRSRPPRLPRPRPRPLISPRP | -0.173 |
| RRIRTRPPRLPRPRPRPDTYPRP | -0.202 |
| RRIRPRPPRLPRPRPRPNREPRP | 0.026 |
| RRIRGRPPRLPRPRPRPDGWPRP | 1.34 |
| RRIRIRPPRLPRPRPRPCEKPRP | -0.626 |
| RRIRKRPPRLPRPRPRPTITPRP | -0.1 |
| RRIRTRPPRLPRPRPRPSPFPRP | 0.133 |
| RRIRARPPRLPRPRPRPPIRPRP | -0.131 |
| RRIRLRPPRLPRPRPRPDNYPRP | 0.0733 |
| RRIRHRPPRLPRPRPRPEFKPRP | 0.0348 |
| RRIRMRPPRLPRPRPRPEKPPRP | 1.34 |
| RRIRVRPPRLPRPRPRPLVPPRP | -0.0493 |
| RRIRRRPPRLPRPRPRPLNNPRP | -0.338 |
| RRIRTRPPRLPRPRPRPNFRPRP | -0.152 |
| RRIRFRPPRLPRPRPRPYTWPRP | -1.05 |
| RRIRTRPPRLPRPRPRPCWKPRP | -0.0202 |
| RRIRHRPPRLPRPRPRPVGNPRP | 0.0182 |
| RRIRCRPPRLPRPRPRPVCNPRP | 0.0532 |
| RRIRRRPPRLPRPRPRPDSPPRP | 0.28 |
| RRIRERPPRLPRPRPRPSWVPRP | -0.178 |
| RRIRSRPPRLPRPRPRPDAIPRP | 0.339 |
| RRIRSRPPRLPRPRPRPEFHPRP | -0.162 |
| RRIRERPPRLPRPRPRPCAFPRP | -0.315 |
| RRIRFRPPRLPRPRPRPIKAPRP | -0.128 |

| Sequence | shrunken log2 fold change |
| --- | --- |
| RRIRNRPPRLPRPRPRPVDLPRP | -0.21 |
| RRIRSRPPRLPRPRPRPEVMPRP | 0.104 |
| RRIRVRPPRLPRPRPRPDLHPRP | -0.0023 |
| RRIRSRPPRLPRPRPRPTHEPRP | -0.0435 |
| RRIRIRPPRLPRPRPRPTIHPRP | -0.592 |
| RRIRWRPPRLPRPRPRPTCHPRP | 0.228 |
| RRIRWRPPRLPRPRPRPEINPRP | 0.267 |
| RRIRYRPPRLPRPRPRPDQTPRP | 0.00902 |
| RRIRWRPPRLPRPRPRPWYPPRP | 0.0299 |
| RRIRLRPPRLPRPRPRPLNKPRP | -0.264 |
| RRIRTRPPRLPRPRPRPCEEPRP | 0.0871 |
| RRIRQRPPRLPRPRPRPGCPPRP | 0.414 |
| RRIRGRPPRLPRPRPRPWEMPRP | 0.0928 |
| RRIRWRPPRLPRPRPRPGKLPRP | -0.368 |
| RRIRVRPPRLPRPRPRPFNPPRP | -0.484 |
| RRIRLRPPRLPRPRPRPNPNPRP | 0.395 |
| RRIRHRPPRLPRPRPRPPKTPRP | 0.177 |
| RRIRVRPPRLPRPRPRPHCSPRP | -0.0738 |
| RRIRPRPPRLPRPRPRPYIVPRP | -0.15 |
| RRIRRRPPRLPRPRPRPMLSPRP | 0.00534 |
| RRIRDRPPRLPRPRPRPSMAPRP | 0.202 |
| RRIRNRPPRLPRPRPRPLLPPRP | 0.0144 |
| RRIRMRPPRLPRPRPRPDCFPRP | 0.0619 |
| RRIRQRPPRLPRPRPRPKANPRP | 0.0666 |
| RRIRTRPPRLPRPRPRPVPNPRP | 0.123 |

| Sequence | shrunken log2 fold change |
| --- | --- |
| RRIRLRPPRLPRPRPRPSFQPRP | -0.514 |
| RRIRIRPPRLPRPRPRPQQAPRP | 0.0151 |
| RRIRHRPPRLPRPRPRPVTQPRP | -0.296 |
| RRIRARPPRLPRPRPRPQFQPRP | 0.0187 |
| RRIRHRPPRLPRPRPRPGWRPRP | 0.232 |
| RRIRPRPPRLPRPRPRPKHYPRP | -0.529 |
| RRIRFRPPRLPRPRPRPLRIPRP | 0.00235 |
| RRIRVRPPRLPRPRPRPMPPPRP | 0.44 |
| RRIRCRPPRLPRPRPRPAAEPRP | 0.829 |
| RRIRLRPPRLPRPRPRPKVSPRP | 0.0482 |
| RRIRLRPPRLPRPRPRPNDLPRP | -0.00842 |
| RRIRGRPPRLPRPRPRPNPCPRP | 0.102 |
| RRIRKRPPRLPRPRPRPEFSPRP | 0.397 |
| RRIRDRPPRLPRPRPRPKLCPRP | -0.0785 |
| RRIRIRPPRLPRPRPRPETDPRP | -0.0362 |
| RRIRRRPPRLPRPRPRPLCFPRP | 0.898 |
| RRIRIRPPRLPRPRPRPWGDPRP | -0.38 |
| RRIRTRPPRLPRPRPRPDCDPRP | 0.209 |
| RRIRLRPPRLPRPRPRPQHTPRP | -0.418 |
| RRIRLRPPRLPRPRPRPDHKPRP | -0.257 |
| RRIRQRPPRLPRPRPRPYEMPRP | -0.153 |
| RRIRLRPPRLPRPRPRPVKHPRP | -0.131 |
| RRIRARPPRLPRPRPRPNKPPRP | -0.0887 |
| RRIRRRPPRLPRPRPRPAIWPRP | 0.356 |
| RRIRFRPPRLPRPRPRPWTNPRP | -0.289 |

| Sequence | shrunken log2 fold change |
| --- | --- |
| RRIRTRPPRLPRPRPRPQVKPRP | -0.0733 |
| RRIRERPPRLPRPRPRPQVQPRP | 0.029 |
| RRIRLRPPRLPRPRPRPSRDPRP | 0.152 |
| RRIRRRPPRLPRPRPRPRVCPRP | 0.89 |
| RRIRERPPRLPRPRPRPSEFPRP | -0.23 |
| RRIRMRPPRLPRPRPRPMMKPRP | 0.0962 |
| RRIRQRPPRLPRPRPRPFNSPRP | -0.3 |
| RRIRIRPPRLPRPRPRPYCSPRP | -0.0144 |
| RRIRYRPPRLPRPRPRPRMLPRP | -1.08 |
| RRIRYRPPRLPRPRPRPDDTPRP | -0.876 |
| RRIRFRPPRLPRPRPRPPGVPRP | 0.168 |
| RRIRYRPPRLPRPRPRPLVGPRP | -0.457 |
| RRIRLRPPRLPRPRPRPKTPPRP | 0.526 |
| RRIRVRPPRLPRPRPRPITNPRP | -0.219 |
| RRIRVRPPRLPRPRPRPNSHPRP | -0.402 |
| RRIRDRPPRLPRPRPRPCHIPRP | -0.251 |
| RRIRLRPPRLPRPRPRPQQIPRP | -0.878 |
| RRIRFRPPRLPRPRPRPPHPPRP | 0.615 |
| RRIRKRPPRLPRPRPRPHVKPRP | -0.258 |
| RRIRRRPPRLPRPRPRPHDWPRP | 0.312 |
| RRIRERPPRLPRPRPRPRMVPRP | -0.462 |
| RRIRHRPPRLPRPRPRPAHCPRP | 0.115 |
| RRIRGRPPRLPRPRPRPTTPPRP | 0.681 |
| RRIRHRPPRLPRPRPRPLPGPRP | 0.103 |
| RRIRVRPPRLPRPRPRPTIWPRP | -0.0331 |
